Assays:
trypsin [1] = experiment: TRF ELISA, Fab on biotinylated trypsin
trypsin [2] = experiment: monoclonal phage TRF ELISA
trypsin [3] = experiment: phage TRF ELISA; GlyAla (Pro3Gly, Arg4Ala) mutant against the clone

Binder | TRF signal for 0.6 ug/mL Fab (trypsin [1]) | TRF signal for 2.4 ug/mL Fab (trypsin [1]) | TRF signal for 10 ug/mL Fab (trypsin [1]) | trypsin binding signal (FU) (trypsin [2]) | % reduction in binding signal (trypsin [3]) [%]
KB_A01 Fab (Fab, V domains shown) VH: EVQLVESGGGLVRPGGSLRLSCAASGFTFSSYAMSWVRQAPGKGLEWVSAISGSGGSTYYADSVKGRFTISRDNTKNSLYLQMTSLRADDTAFYYCVKDFGPGYGTGWFDYWGPGTLVTVSS VL: YLNWYQQKPGKAPKLLIYAAEVCPRILMRCKQDSDCLAGCVCGPNGFCGGTSGVPSRFSGSRSGTEFTLTISSLQPEDFATYYCQKVDDYPLTFGGGTKVEIKR | 2390 | 16600 | 55600 | – | –
KB_A02 Fab (Fab, V domains shown) VH: EVQLVESGGGLVRPGGSLRLSCAASGFTFSSYAMSWVRQAPGKGLEWVSAISGSGGSTYYADSVKGRFTISRDNTKNSLYLQMTSLRADDTAFYYCVKDFGPGYGTGWFDYWGPGTLVTVSS VL: AVNWYQQLPGKAPKLLIYAAAKCPRILMRCKQDSDCLAGCVCGPNGFCGGASGVSDRFSGSIDSSSNSASLTISGLKPEDEGDYYCQSYDSSNRWVFGGGTKVTVLG | 93800 | 221000 | 255000 | – | –
KB_A06 Fab (Fab, V domains shown) VH: EVQLVESGGGLVRPGGSLRLSCAASGFTFSSYAMSWVRQAPGKGLEWVSAISGSGGSTYYADSVKGRFTISRDNTKNSLYLQMTSLRADDTAFYYCVKDFGPGYGTGWFDYWGPGTLVTVSS VL: AVNWYQQLPGKAPKLLIYAAVRCPRILMRCKQDSDCLAGCVCGPNGFCGTPSGIPERFSGSIDRSTNSASLTISGLKTEDEADYYCQSYDSSNLNWVFGGGTKLTVLG | 108000 | 212000 | 242000 | – | –
KB_A07 Fab (Fab, V domains shown) VH: EVQLVESGGGLVRPGGSLRLSCAASGFTFSSYAMSWVRQAPGKGLEWVSAISGSGGSTYYADSVKGRFTISRDNTKNSLYLQMTSLRADDTAFYYCVKDFGPGYGTGWFDYWGPGTLVTVSS VL: YLNWYQQKPGKAPKLLIYAAGVCPRILMRCKQDSDCLAGCVCGPNGFCGSRSGVPSRFSGSGSGTDFTLTISSLQPEDFATYYCQQGASPPYTFGQGTKVEIKR | 108000 | 201000 | 226000 | – | –
KB_A09 Fab (Fab, V domains shown) VH: EVQLVESGGGLVRPGGSLRLSCAASGFTFSSYAMSWVRQAPGKGLEWVSAISGSGGSTYYADSVKGRFTISRDNTKNSLYLQMTSLRADDTAFYYCVKDFGPGYGTGWFDYWGPGTLVTVSS VL: AVNWYQQLPGKAPKLLIYAAERCPRILMRCKQDSDCLAGCVCGPNGFCGTPSGVPDRFSGSIDTFSNSASLTISGLKTEDEADYYCQSYDSSHHWVFGGGTKLTVLG | 21000 | 84100 | 161000 | – | –
KB_A10 Fab (Fab, V domains shown) VH: EVQLVESGGGLVRPGGSLRLSCAASGFTFSSYAMSWVRQAPGKGLEWVSAISGSGGSTYYADSVKGRFTISRDNTKNSLYLQMTSLRADDTAFYYCVKDFGPGYGTGWFDYWGPGTLVTVSS VL: AVNWYQQLPGKAPKLLIYAAGGCPRILMRCKQDSDCLAGCVCGPNGFCGSNSGVPDRFSGSKSGNTASLTISGLQSEDEADYYCAAWDDSLSGVVFGGGTQLTVLG | 14600 | 71900 | 68700 | – | –
KB_A01 (scFv, V domains shown) VH: EVQLVESGGGLVRPGGSLRLSCAASGFTFSSYAMSWVRQAPGKGLEWVSAISGSGGSTYYADSVKGRFTISRDNTKNSLYLQMTSLRADDTAFYYCVKDFGPGYGTGWFDYWGPGTLVTVSS VL: YLNWYQQKPGKAPKLLIYAAEVCPRILMRCKQDSDCLAGCVCGPNGFCGGTSGVPSRFSGSRSGTEFTLTISSLQPEDFATYYCQKVDDYPLTFGGGTKVEIKR | – | – | – | 20200 | 93
KB_A02 (scFv, V domains shown) VH: EVQLVESGGGLVRPGGSLRLSCAASGFTFSSYAMSWVRQAPGKGLEWVSAISGSGGSTYYADSVKGRFTISRDNTKNSLYLQMTSLRADDTAFYYCVKDFGPGYGTGWFDYWGPGTLVTVSS VL: AVNWYQQLPGKAPKLLIYAAAKCPRILMRCKQDSDCLAGCVCGPNGFCGGASGVSDRFSGSIDSSSNSASLTISGLKPEDEGDYYCQSYDSSNRWVFGGGTKVTVLG | – | – | – | 183000 | 96
KB_A03 (scFv, V domains shown) VH: EVQLVESGGGLVRPGGSLRLSCAASGFTFSSYAMSWVRQAPGKGLEWVSAISGSGGSTYYADSVKGRFTISRDNTKNSLYLQMTSLRADDTAFYYCVKDFGPGYGTGWFDYWGPGTLVTVSS VL: AVNWYQQLPGKAPKLLINAADRCPRILMRCKQDSDCLAGCVCGPNGFCGTNSGVPDRFSGSSSGNTASLTITGAQAEDEADYYCNSRDSSGNNWVFGGGTKVTVLG | – | – | – | 28700 | 90
KB_A05 (scFv, V domains shown) VH: EVQLVESGGGLVRPGGSLRLSCAASGFTFSSYAMSWVRQAPGKGLEWVSAISGSGGSTYYADSVKGRFTISRDNTKNSLYLQMTSLRADDTAFYYCVKDFGPGYGTGWFDYWGPGTLVTVSS VL: AVNWYQQLPGKAPKLLIYAADKCPRILMRCKQDSDCLAGCVCGPNGFCGGGSGIPERFSGSKSGTSASLAISGLRSEDEADYYCATWDDNLNGVVFGGGTKLTVLG | – | – | – | 121000 | 100
KB_A06 (scFv, V domains shown) VH: EVQLVESGGGLVRPGGSLRLSCAASGFTFSSYAMSWVRQAPGKGLEWVSAISGSGGSTYYADSVKGRFTISRDNTKNSLYLQMTSLRADDTAFYYCVKDFGPGYGTGWFDYWGPGTLVTVSS VL: AVNWYQQLPGKAPKLLIYAAVRCPRILMRCKQDSDCLAGCVCGPNGFCGTPSGIPERFSGSIDRSTNSASLTISGLKTEDEADYYCQSYDSSNLNWVFGGGTKLTVLG | – | – | – | 24400 | 100
KB_A09 (scFv, V domains shown) VH: EVQLVESGGGLVRPGGSLRLSCAASGFTFSSYAMSWVRQAPGKGLEWVSAISGSGGSTYYADSVKGRFTISRDNTKNSLYLQMTSLRADDTAFYYCVKDFGPGYGTGWFDYWGPGTLVTVSS VL: AVNWYQQLPGKAPKLLIYAAERCPRILMRCKQDSDCLAGCVCGPNGFCGTPSGVPDRFSGSIDTFSNSASLTISGLKTEDEADYYCQSYDSSHHWVFGGGTKLTVLG | – | – | – | 57700 | 100

More lines, now with the values ahead:

TRF signal for 0.6 ug/mL Fab (trypsin [1]) | TRF signal for 2.4 ug/mL Fab (trypsin [1]) | TRF signal for 10 ug/mL Fab (trypsin [1]) | trypsin binding signal (FU) (trypsin [2]) | % reduction in binding signal (trypsin [3]) [%] | Binder
48900 | 141000 | 212000 | – | – | KB_A11 Fab (Fab, V domains shown) VH: EVQLVESGGGLVRPGGSLRLSCAASGFTFSSYAMSWVRQAPGKGLEWVSAISGSGGSTYYADSVKGRFTISRDNTKNSLYLQMTSLRADDTAFYYCVKDFGPGYGTGWFDYWGPGTLVTVSS VL: YLNWYQQKPGKAPKLLIYAAEICPRILMRCKQDSDCLAGCVCGPNGFCGPSSGIPARFSGSGYGTDFTLTINNIESEDAAYYFCLQHDNFPYTFGQGTKVEIKR
54800 | 153000 | 257000 | – | – | KB_B01 Fab (Fab, V domains shown) VH: EVQLVESGGGLVRPGGSLRLSCAASGFTFSSYAMSWVRQAPGKGLEWVSAISGSGGSTYYADSVKGRFTISRDNTKNSLYLQMTSLRADDTAFYYCVKDFGPGYGTGWFDYWGPGTLVTVSS VL: AVNWYQQLPGKAPKLLIYAAAGCPRILMRCKQDSDCLAGCVCGPNGFCGTRSGVSDRFSGSKSGTSASLAISGLRSEDEADYYCAAWDDSLRAYVFGTGTKLTVLG
2340 | 15900 | 56600 | – | – | KB_B02 Fab (Fab, V domains shown) VH: EVQLVESGGGLVRPGGSLRLSCAASGFTFSSYAMSWVRQAPGKGLEWVSAISGSGGSTYYADSVKGRFTISRDNTKNSLYLQMTSLRADDTAFYYCVKDFGPGYGTGWFDYWGPGTLVTVSS VL: AVNWYQQLPGKAPKLLIYAAVGCPRILMRCKQDSDCLAGCVCGPNGFCGTGSGIPERFSGSKSGNTASLTISGLQAEDEGDYYCAAWDDSLSGPVFGGGTKLTVLG
153000 | 247000 | 276000 | – | – | KB_C07 Fab (Fab, V domains shown) VH: EVQLVESGGGLVRPGGSLRLSCAASGFTFSSYAMSWVRQAPGKGLEWVSAISGSGGSTYYADSVKGRFTISRDNTKNSLYLQMTSLRADDTAFYYCVKDFGPGYGTGWFDYWGPGTLVTVSS VL: AVNWYQQLPGKAPKLLIYAAVGCPRILMRCKQDSDCLAGCVCGPNGFCGSASGVSDRFSGSKSGTSASLAISGLRSEDEADYYCASWDDSLRGYVFGTGTKVTVLG
51100 | 131000 | 183000 | – | – | KB_C08 Fab (Fab, V domains shown) VH: EVQLVESGGGLVRPGGSLRLSCAASGFTFSSYAMSWVRQAPGKGLEWVSAISGSGGSTYYADSVKGRFTISRDNTKNSLYLQMTSLRADDTAFYYCVKDFGPGYGTGWFDYWGPGTLVTVSS VL: AVNWYQQLPGKAPKLLIYAAAVCPRILMRCKQDSDCLAGCVCGPNGFCGTRSGIPERFSGSKSGTSAFLAISGLRSEDEADYYCAAWDDSLSGVVFGGGTKLTVLG
46800 | 205000 | 289000 | – | – | KB_C09 Fab (Fab, V domains shown) VH: EVQLVESGGGLVRPGGSLRLSCAASGFTFSSYAMSWVRQAPGKGLEWVSAISGSGGSTYYADSVKGRFTISRDNTKNSLYLQMTSLRADDTAFYYCVKDFGPGYGTGWFDYWGPGTLVTVSS VL: AVNWYQQLPGKAPKLLIYAAGRCPRILMRCKQDSDCLAGCVCGPNGFCGGGSGVPDRFSGSIDSSSNSASLTISGLRAEDEADYYCQSYDSSNHWVFGGGTKLTVLG
41700 | 146000 | 238000 | – | – | KB_C10 Fab (Fab, V domains shown) VH: EVQLVESGGGLVRPGGSLRLSCAASGFTFSSYAMSWVRQAPGKGLEWVSAISGSGGSTYYADSVKGRFTISRDNTKNSLYLQMTSLRADDTAFYYCVKDFGPGYGTGWFDYWGPGTLVTVSS VL: AVNWYQQLPGKAPKLLIYAAGPCPRILMRCKQDSDCLAGCVCGPNGFCGADSGVSDRFSGSKSGTSASLAITGLQAEDEGDYYCAAWDDSLNGLVFGGGTKVTVLG

Reference: patent publication US20260043020A1, “BINDING MEMBERS WITH ALTERED DIVERSITY SCAFFOLD DOMAINS” (priority 2016, published 2026)
